Consider one molecule from patent publication US20080241130A1 (published 2008).

In assay [1] the target is T1, human IL-17RC.Fc (human).
T1 construct: also called hIL-17RC.Fc
Description: indirect sandwich ELISA: IL-17RC.Fc captured on goat anti-human IgG-Fc, biotinylated cytokine titrated, Poly-HRP streptavidin. The method, then: (§1) Binding of human IL-17F, hIL-17A or hIL-17F/IL-17A to human IL-17R.Fc (hIL-17R.Fc) and IL-17RC.Fc (hIL-17RC.Fc) was determined by indirect sandwich ELISA. ELISA plates (Costar, Cambridge Mass.) were coated overnight with 10 μg/ml goat anti-human IgG-Fc (Bethyl Laboratories, Montgomery, Tex.). Human IL-17R.Fc or hIL17-RC.Fc was then loaded at 6 ng/ml and 30 ng/ml, respectively, for 3 hours, followed by serial dilutions of biotinylated IL-17A, IL-17F or IL-17F/IL-17A for 2 hours. The plate was developed with Poly-HRP Streptavidin (Pierce Biotechnology, Rockford, Ill.) and TMB Substrate (KPL Labs, Gaithersburg, Md.).
(§2) The binding of hIL-17F, hIL-17A or hIL-17F/IL-17A to hIL-17R.Fc and/or hIL-17RC.Fc was evaluated by indirect sandwich ELISA. All three cytokines bound to hIL-17RC.Fc with approximately the same EC₅₀ of 18-25 ng/ml (FIG. 1B). However, the EC₅₀ for the three cytokines were different for binding to hIL-17R.Fc. The tightest binding occurred between hIL-17A and hIL-17R.Fc with an EC₅₀ of 25 ng/ml. Human IL-17F bound weakly to hIL-17R.Fc with an EC₅₀ greater than 2000 ng/ml.
A general note: An ELISA detects its analyte on a solid surface through an enzyme-linked reagent.

Assay [2] concerns the target T2, human IL-17R.Fc (human).
T2 construct: also called hIL-17R.Fc; IL-17RA.Fc
The assay is described as follows: indirect sandwich ELISA; receptor.Fc captured on goat anti-human IgG-Fc, biotinylated cytokine titrated. The method, then:
as §1, §2

The EC50 (read off the curve) is the concentration needed to bring the measured effect to its halfway point. Read a high EC50 (read off the curve) as a less potent agent. The EC50 is the concentration at which the effect is half-maximal.

T1 sequence (chain, as listed by the source limits assumed): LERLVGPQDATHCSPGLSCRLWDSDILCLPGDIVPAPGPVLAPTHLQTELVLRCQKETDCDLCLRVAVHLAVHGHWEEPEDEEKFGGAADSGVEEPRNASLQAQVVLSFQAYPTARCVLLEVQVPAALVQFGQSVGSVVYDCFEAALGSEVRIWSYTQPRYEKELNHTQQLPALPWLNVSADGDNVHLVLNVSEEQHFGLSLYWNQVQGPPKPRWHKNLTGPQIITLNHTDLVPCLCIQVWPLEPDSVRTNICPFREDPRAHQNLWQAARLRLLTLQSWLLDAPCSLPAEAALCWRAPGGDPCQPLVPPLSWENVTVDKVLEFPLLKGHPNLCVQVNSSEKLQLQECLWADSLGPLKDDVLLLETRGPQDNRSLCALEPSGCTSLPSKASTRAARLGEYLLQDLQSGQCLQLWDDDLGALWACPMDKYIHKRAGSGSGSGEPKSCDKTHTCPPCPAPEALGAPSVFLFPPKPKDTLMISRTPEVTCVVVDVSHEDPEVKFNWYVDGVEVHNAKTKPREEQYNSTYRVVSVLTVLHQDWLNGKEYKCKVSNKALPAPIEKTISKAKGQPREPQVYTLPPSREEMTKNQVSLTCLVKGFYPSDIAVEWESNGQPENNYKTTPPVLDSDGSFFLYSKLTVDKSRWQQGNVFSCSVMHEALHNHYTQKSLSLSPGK
T2 sequence (chain, as listed by the source limits assumed): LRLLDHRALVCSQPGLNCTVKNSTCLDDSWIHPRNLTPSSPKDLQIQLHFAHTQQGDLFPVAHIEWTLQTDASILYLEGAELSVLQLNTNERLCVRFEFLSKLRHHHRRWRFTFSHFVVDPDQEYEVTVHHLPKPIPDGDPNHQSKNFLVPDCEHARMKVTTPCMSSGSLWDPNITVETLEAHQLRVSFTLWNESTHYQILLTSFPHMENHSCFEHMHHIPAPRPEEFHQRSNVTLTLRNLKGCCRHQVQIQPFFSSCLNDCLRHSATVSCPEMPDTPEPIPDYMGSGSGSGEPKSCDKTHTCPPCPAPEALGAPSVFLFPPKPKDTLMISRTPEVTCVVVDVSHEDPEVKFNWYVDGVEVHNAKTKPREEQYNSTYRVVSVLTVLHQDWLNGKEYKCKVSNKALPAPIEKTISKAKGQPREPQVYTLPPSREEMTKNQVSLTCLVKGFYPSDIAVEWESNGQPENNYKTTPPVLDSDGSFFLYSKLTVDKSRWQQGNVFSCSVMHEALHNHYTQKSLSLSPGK

B1: human IL-17F (ligand)
chain: RKIPKVGHTFFQKPESCPPVPGGSMKLDIGIINENQRVSMSRNIESRSTSPWNYTVTWDPNRYPSEVVQAQCRNLGCINAQGKEDISMNSVPIQQETLVVRRKHQGCSVSFQLEKVLVTVGCTCVTPVIHHVQ
modifications: biotinylated in the ELISA (FluoReporter Mini-biotin-XX kit); sites not stated
notes: Homodimer; also called hIL-17F
Regarding B1, the “EC50 (read off the curve)” value in assay [1] was ~0.02 µg/mL. In assay [2], the EC50 is > 2 µg/mL.
